For this assay, the target named is amylin receptor (rat basal forebrain membranes containing the nucleus accumbens and surrounding regions) (rat). Nature of the assay: competition with 125I-Bolton-Hunter rat amylin on rat basal forebrain membranes, filtration.

Usually IC50 stands for the concentration at which inhibition is half-maximal.

Positions count from the first letter of the chain named. Positions of bridges follow the written chain, without caps; N, C: chain ends. No end group written: not given here.

CNTATCATQRLANFLVHSSNNFGPILPSTNVGSNTY (peptide, from a related filing) [des-1Lys25,28Pro-h-Amylin] gave a 50% inhibitory concentration (IC50) of 0.085 nM.

B1: des-1Lys18Arg25,28,29Pro-h-Amylin (peptide)
peptide: CNTATCATQRLANFLVRSSNNFGPILPPTNVGSNTY
modifications: 2,7-disulfide; made on methylbenzhydrylamine resin (C-terminal amide not printed in so many words)
Molecule B1 returned an IC50 of 0.021 nM.

B2: des-1Lys18Arg25,28Pro-h-Amylin (peptide)
peptide: B1 peptide with P28S
modifications: 2,7-disulfide; made on methylbenzhydrylamine resin (C-terminal amide not printed in so many words)
In the case of B2, the IC50 is 0.082 nM.

B3: des-1Lys25,28,29Pro-h-Amylin (peptide)
peptide: B1 peptide with R17H
modifications: 2,7-disulfide; made on methylbenzhydrylamine resin (C-terminal amide not printed in so many words)
The molecule B3 showed an IC50 of 0.014 nM.

With KCNTATCATQRLANFLVHSSNNFGPILPSTNVGSNTY (peptide, from a related filing) [25,28Pro-h-Amylin], the IC50 was 0.026 nM.

B4: 25Pro26Val28,29Pro-h-Amylin (peptide)
peptide: KCNTATCATQRLANFLVHSSNNFGPVLPPTNVGSNTY
modifications: 2,7-disulfide; made on methylbenzhydrylamine resin (C-terminal amide not printed in so many words)
For B4, the IC50 stood at 0.018 nM.

For KDNTATKATQRLANFLVHSSNNFGAILSSTNVGSNTY (peptide, from a related filing, lactam 2-7; ends not checked) [2,7Cyclo-[2Asp,7Lys]-h-Amylin], the IC50 is 0.31 nM.

B5: 18Arg25,28Pro-h-Amylin (peptide)
peptide: B4 peptide with H18R, V26I, P29S
modifications: 2,7-disulfide; made on methylbenzhydrylamine resin (C-terminal amide not printed in so many words)
B5 displayed an IC50 of 0.032 nM.

B6: 18Arg25,28,29Pro-h-Amylin (peptide)
peptide: B4 peptide with H18R, V26I
modifications: 2,7-disulfide; made on methylbenzhydrylamine resin (C-terminal amide not printed in so many words)
Molecule B6 yielded an IC50 of 0.021 nM.

These data come from US7407934.
